Where two headings read alike, the source gives them in different places.
Key:
[1] = target: PARP1 Zn1-Zn3 (linked);PARP1 WGR-CAT ΔVE (Homo sapiens?;Homo sapiens?, UniProt P09874;P09874 1-366;518-1014, del97-206|del687-688); assay: X-ray crystallography
[2] = target: T1, PARP1 Zn1-Zn3 (linked);PARP1 WGR-HD (Homo sapiens?;Homo sapiens?, UniProt P09874;P09874 1-366;527-786, del97-206|del663-676); assay: fluorescence polarization
[3] = target: T2, PARP1 G558L (UniProt P09874 1-1014, G558L); assay: fluorescence polarization
[4] = target: T3, PARP1 V687A/E688A (UniProt P09874 1-1014, V687A;E688A); assay: fluorescence polarization
[5] = target: T4, PARP1 ΔART (UniProt P09874 1-786); assay: fluorescence polarization
[6] = target: T5, PARP1 M686G/V687P (UniProt P09874 1-1014, M686G;V687P); assay: fluorescence polarization
[7] = target: T6, PARP1 WT (UniProt P09874 1-1014); assay: fluorescence polarization
[8] = target: T7, PARP1 L713F (UniProt P09874 1-1014, L713F); assay: fluorescence polarization
[9] = target: PARP1 G558E (UniProt P09874 1-1014, G558E); assay: fluorescence polarization
[10] = target: T8, PARP1 ΔV687-E688 (ΔVE) (UniProt P09874 1-1014, del687-688); assay: fluorescence polarization
[11] = target: T9, PARP1 L698A/L701A (UniProt P09874 1-1014, L698A;L701A); assay: fluorescence polarization
[12] = target: T10, PARP1 G558V (UniProt P09874 1-1014, G558V); assay: fluorescence polarization
[13] = target: PARP1 WGR-CAT (UniProt P09874 518-1014); assay: fluorescence polarization
[14] = target: PARP1 WGR-HD (UniProt P09874 527-786, del663-676); assay: fluorescence polarization
[15] = target: T2, PARP1 G558L; assay: fluorescence polarization; remark: listed apart in the source
[16] = target: T3, PARP1 V687A/E688A; assay: fluorescence polarization; remark: listed apart in the source
[17] = target: T4, PARP1 ΔART; assay: fluorescence polarization; remark: listed apart in the source
[18] = target: T5, PARP1 M686G/V687P; assay: fluorescence polarization; remark: listed apart in the source
[19] = target: T6, PARP1 WT; assay: fluorescence polarization; remark: listed apart in the source
[20] = target: T7, PARP1 L713F; assay: fluorescence polarization; remark: listed apart in the source
[21] = target: PARP1 Y569L (UniProt P09874 1-1014, Y569L); assay: fluorescence polarization
[22] = target: T8, PARP1 ΔV687-E688 (ΔVE); assay: fluorescence polarization; remark: listed apart in the source
[23] = target: T9, PARP1 L698A/L701A; assay: fluorescence polarization; remark: listed apart in the source
[24] = target: T10, PARP1 G558V; assay: fluorescence polarization; remark: listed apart in the source
[25] = target: PARP1 Y569A (UniProt P09874 1-1014, Y569A); assay: fluorescence polarization
[26] = target: T1, PARP1 Zn1-Zn3 (linked);PARP1 WGR-HD; assay: X-ray crystallography
[27] = target: PARP1 Zn1;PARP1 Zn3;PARP1 WGR-HD (Homo sapiens?;Homo sapiens?;Homo …, UniProt P09874;P09874;P09874 1-96;216-366;527-786, ||del663-676); assay: X-ray crystallography

B1: 5-bp duplex (dsDNA)
DNA 1: CGACG
DNA 2: CGTCG
binding result [1]: binds

B2: 18-bp DSB duplex (dsDNA)
DNA 1: GGGTTGCGGCCGCTTGGG
DNA 2: CCCAAGCGGCCGCAACCC
Kd [2]: 7 ± 2.4 nM | Kd [3]: 57.2 ± 5.8 nM | Kd [4]: 71.2 ± 10.7 nM | Kd [5]: 12.1 ± 4.6 nM | Kd [6]: 7.3 ± 2.3 nM | Kd [7]: 59.7 ± 9.2 nM | Kd [8]: 21.3 ± 3.5 nM | Kd [9]: 118 ± 23.2 nM | Kd [10]: 9.4 ± 1.3 nM | Kd [11]: 64.4 ± 13.4 nM | Kd [12]: 66.7 ± 7.4 nM | binding result [13]: no binding | binding result [14]: no binding | Kd [15]: 7.6 ± 1.2 nM | Kd [16]: 10.3 ± 3.6 nM | Kd [17]: 15.4 ± 1.8 nM | Kd [18]: 4.8 ± 1.4 nM | Kd [19]: 8.4 ± 1 nM | Kd [20]: 6.2 ± 3.1 nM | Kd [21]: 40.8 ± 2.1 nM | Kd [22]: 8 ± 1.9 nM | Kd [23]: 15.3 ± 7.8 nM | Kd [24]: 10.2 ± 1.5 nM | Kd [25]: 20.6 ± 1.4 nM

B3: 10-bp palindromic duplex (dsDNA)
DNA 1: GCCTGCAGGC
DNA 2: GCCTGCAGGC
binding result [26]: binds

B4: 12-bp palindromic duplex (dsDNA)
DNA 1: ATGCGGCCGCAT
DNA 2: ATGCGGCCGCAT
binding result [27]: binds
